What all share (conditions): source organism: Hepatitis B virus
In test [1] the target is HLA-A*02:01. The test is described as follows: IEDB peptide-MHC binding, cellular MHC/competitive/fluorescence; ≥ and ≤ were set here for values at or beyond the usual limits of such assays.
For test [2], the target named is HLA-A*02:02. The description is as above.
The target in test [3] is HLA-A*02:03. The description is as above.
Test [4] addresses HLA-A*03:01. Described as above.
Test [5] deals with HLA-A*11:01. Described as above.
The target of test [6] is HLA-A*31:01. Described as above.
For test [7], the target named is HLA-A*68:01. Described as above.
Test [8] deals with HLA-A*68:02. The description is as above.
The target of test [9] is HLA-A*02:06. The test is described as follows: IEDB peptide-MHC binding, purified MHC/competitive/radioactivity; ≥ and ≤ were set here for values at or beyond the usual limits of such assays.
Test [10] addresses HLA-A*02:02. The description is as above.
Test [11] has as its target HLA-A*02:03. The description is as above.
For test [12], the target named is HLA-A*68:02. The description is as above.
Test [13] addresses HLA-A*02:01. The test is described as above.
The target of test [14] is HLA-A*31:01. The test is described as above.
The target in test [15] is HLA-A*02:06. The test is described as follows: IEDB peptide-MHC binding, cellular MHC/competitive/fluorescence; ≥ and ≤ were set here for values at or beyond the usual limits of such assays.

Some results are limits rather than exact numbers.

Experimental findings from the Immune Epitope Database (IEDB) are described below.

As to HQLDPAFRA, the IC50 (in general, the concentration at which inhibition is half-maximal) is 6.45 µM in test [1]; 16 µM in [2]; 55.9 µM in [3]; at least 70 µM in test [4]; 14.7 µM in test [5]; 40.6 µM in test [6]. Also, the IC50 was at least 70 µM in test [7], at least 70 µM in test [8] and 118 nM in [9].
For the sequence FLCKQYLNL, the IC50 in [4] was at least 70 µM; in test [5], at least 70 µM; in test [6] it was 26.3 µM; in test [7], at least 70 µM; in test [8] it was at least 70 µM; in [10], 175 nM. Besides, the figures for the IC50 in test [11] and in test [9] were 11 nM and 1110 nM, respectively.
WLSLLVPFV: the IC50 in test [4] was 40.3 µM; in [6] it was 11.7 µM; in test [7], at least 70 µM.
As to FLLTRILTI, the IC50 is at least 70 µM in test [4], at least 70 µM in [6], at least 70 µM in [7] and 22.3 µM in test [8].
With FLPSDFFPSV, the half-inhibitory concentration (IC50) was at least 70 µM in [4], 20.1 µM in [6], at least 70 µM in test [7] and 28 nM in test [12].
Take YQGMLPVCPL: the 50% inhibitory concentration (IC50) in test [4] was 24 µM; in test [5], at least 70 µM; in test [6] it was 11.4 µM; in test [7], at least 70 µM; in test [8], 5.34 µM; in test [13], 543 nM. The IC50 in test [10] came out at 35 nM; in [11], 20 nM; in test [9], 165 nM.
In the case of GLSRYVARV, the IC50 in test [4] is 7.23 µM; in [5] it was at least 70 µM; in test [6], 24.7 µM; in test [7], at least 70 µM; in [8], 8.86 µM; in [13] it was 154 nM. Further, the IC50 worked out at 11 nM in test [10], 1.5 nM in test [11] and 1170 nM in test [9].
On to MMWYWGPSL, for which the IC50 in test [7] was at least 70 µM; in test [10], 137 nM; in test [11], 54 nM; in [14] it was 131 nM.
On to YMDDVVLGA, for which the IC50 in [4] was 69.4 µM; in [5], at least 70 µM; in test [6], at least 70 µM; in test [7], at least 70 µM; in test [8] it was 50.1 µM; in test [11] it was 1290 nM. For the same sequence, the half-inhibitory concentration (IC50) in test [9] was found to be 3700 nM.
As to RILTIPQSL, the IC50 in [1] is 39.1 µM; in [2], 6.45 µM; in test [3], 9.77 µM; in test [15], 5.95 µM; in test [4] it was at least 70 µM; in test [5] it was at least 70 µM. Besides, the IC50 in [6] was 36.9 µM; in test [7] it was at least 70 µM; in test [8] it was at least 70 µM.
Regarding LVPFVQWFV, the IC50 is at least 70 µM in test [4]; 69.8 µM in test [5]; at least 70 µM in test [7]; 168 nM in test [13]; 71 nM in test [11]; 55 nM in [9]. Moreover, the half-inhibitory concentration (IC50) in [14] stood at 1820 nM; in test [12], 19 nM.
For the sequence WMMWYWGPSL, the IC50 was 15.4 µM in test [4]; at least 70 µM in test [5]; at least 70 µM in test [7]; 354 nM in test [10]; 68 nM in test [11]; 305 nM in test [9]. Moreover, the results for the IC50 in test [14] and in test [12] were 784 nM and 3590 nM, respectively.
As to FLGPLLVLQA, the concentration for half-maximal inhibition (IC50) in test [4] was 33.1 µM; in test [5], 61.2 µM; in test [6] it was 14.7 µM; in [7], at least 70 µM; in [8] it was 30.3 µM; in test [10], 3690 nM. For the same sequence, the IC50 in test [11] came out at 160 nM; in test [9] it was 1370 nM.
